B1: KRT33B (parent)
chain: YQSYFKTIEELQQKILCSKSENAR

Variants of: B1
Test: protein stability index of a GFP-peptide fusion (GPS, HEK-293T) (PSI 1-6); higher = more stable
Conditions: c terminus: a fixed tail appended
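Further: lentivirally expressed fusions sorted by FACS into six bins by GFP to DsRed ratio, PSI derived from sequencing read proportions per bin multiplied by bin number.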

Variant | protein stability index
S18F | 1.68
S18I | 2.42
S18V | 1.73
S18T | 2
S18A | 2.21
S18Q | 2.26
S18M | 2.18
S18W | 1.97
S18E | 2.12
S18K | 1.86
S18N | 1.92
S18R | 2.18
S18C | 2.65
S18D | 1.9
S18Y | 2.21
S18H | 1.84
S18P | 1.79
S18G | 2.21
S18L | 1.79
I8R | 1.9
I8W | 1.94
I8Y | 1.93
I8Q | 2.06
I8C | 1.84

Variant | protein stability index
I8A | 2.44
I8T | 1.63
I8P | 2.78
I8D | 2.07
I8H | 2.42
I8K | 2.42
I8G | 1.78
I8V | 2.19
I8N | 2.19
I8M | 1.79
I8L | 2.41
I8S | 1.51
I8F | 2.01
I8E | 3
I15V | 1.7
I15P | 2.3
I15Y | 1.73
I15S | 1.93
I15K | 1.64
I15L | 1.67
I15H | 2.52
I15A | 2.14
I15C | 3.74
I15D | 2.05

Variant | protein stability index
I15W | 1.71
I15R | 1.93
I15Q | 2.09
I15F | 2
I15T | 1.81
I15N | 1.85
I15E | 1.81
I15G | 2.25
I15M | 2.07
C17A | 2.16
C17S | 1.7
C17Y | 1.61
C17L | 2.87
C17K | 2.19
C17N | 1.95
C17V | 1.72
C17P | 1.77
C17Q | 1.89
C17R | 2.14
C17E | 2.49
C17H | 2.31
C17F | 1.39
C17I | 2.07
C17D | 1.65

Variant | protein stability index
C17T | 2.19
C17M | 2.54
C17W | 1.53
C17G | 1.87
S20Y | 1.95
S20N | 2.13
S20R | 1.89
S20E | 1.65
S20Q | 1.81
S20D | 2.32
S20C | 1.95
S20P | 1.99
S20K | 2.05
S20I | 1.92
S20V | 2.04
S20F | 1.97
S20M | 1.63
S20H | 1.82
S20L | 1.73
S20W | 1.56
S20T | 1.87
S20G | 1.38
S20A | 2.02
N22E | 1.89

Variant | protein stability index
N22H | 2.18
N22A | 2.31
N22R | 1.49
N22D | 1.82
N22P | 1.46
N22C | 2.3
N22M | 1.93
N22L | 1.86
N22G | 1.99
N22I | 1.71
N22K | 1.8
N22Q | 2.19
N22F | 1.67
N22S | 2.5
E9N | 2.69
E9A | 1.98
E9Y | 2.33
E9T | 2.12
E9P | 1.66
E9F | 1.53
E9S | 2.99
E9K | 2.9
E9Q | 1.98
E9H | 2.25

Variant | protein stability index
E9L | 2.17
E9R | 2.99
E9W | 1.71
E9I | 1.9
E9G | 1.86
E9V | 1.98
E9D | 1.9
E9M | 1.78
E9C | 1.79
L16D | 1.87
L16M | 1.85
L16G | 1.92
L16I | 2.14
L16F | 1.93
L16E | 1.73
L16T | 1.55
L16Q | 1.88
L16N | 1.84
L16Y | 1.41
L16V | 2.89
L16P | 2.12
L16K | 2.39
L16C | 2.52
L16W | 2.1

Variant | protein stability index
L16R | 2.49
L16A | 2.13
L16H | 1.96
L16S | 2
E10F | 2.13
E10N | 2.1
E10T | 1.87
E10P | 2.39
E10W | 1.71
E10S | 1.65
E10Q | 2.69
E10K | 2.44
E10V | 2.28
E10L | 1.63
E10C | 1.72
E10D | 2.36
E10Y | 2.52
E10M | 1.67
E10H | 1.65
E10I | 1.66
E10A | 2.02
E10R | 1.89
E10G | 2.6
K6L | 1.77

Variant | protein stability index
K6A | 1.43
K6H | 1.62
K6V | 2.41
K6I | 2.52
K6F | 2.25
K6N | 1.88
K6Q | 1.64
K6S | 2.59
K6W | 2.07
K6Y | 2.55
K6E | 1.93
K6D | 2.08
K6G | 1.5
K6M | 1.8
K6C | 3.34
K6P | 2.74
K6R | 1.11
K6T | 1.79
Q12G | 1.73
Q12P | 1.8
Q12L | 1.79
Q12I | 1.94
Q12N | 1.89
Q12D | 2.07

Variant | protein stability index
Q12M | 1.53
Q12A | 2.78
Q12S | 1.96
Q12C | 1.58
Q12F | 2.98
Q12Y | 1.97
Q12T | 1.96
Q12E | 2.6
Q12W | 1.91
Q12K | 2.06
Q12R | 2.11
Q12H | 1.78
Q12V | 1.98
Q13W | 2.6
Q13A | 1.79
Q13F | 2.04
Q13N | 2.19
Q13L | 2.2
Q13C | 1.3
Q13S | 1.86
Q13H | 2.09
Q13Y | 1.65
Q13E | 1.81
Q13K | 1.85

Variant | protein stability index
Q13M | 1.4
Q13R | 1.68
Q13V | 1.78
Q13D | 1.55
Q13T | 2.23
Q13G | 2.09
Q13I | 1.35
Q13P | 1.83
L11F | 1.75
L11D | 1.79
L11S | 1.84
L11K | 1.42
L11A | 2.41
L11Q | 1.71
L11G | 2.02
L11T | 1.85
L11V | 2.01
L11N | 2.09
L11E | 2.01
L11H | 2.1
L11P | 2.06
L11Y | 1.8
L11W | 2.2
L11C | 1.53

Variant | protein stability index
L11M | 1.6
L11I | 1.81
L11R | 1.62
K19F | 1.7
K19L | 1.54
K19V | 1.7
K19Q | 2.08
K19A | 1.72
K19C | 1.84
K19P | 2.14
K19R | 2.06
K19S | 1.78
K19T | 2.3
K19Y | 1.84
K19N | 1.86
K19H | 1.76
K19I | 1.71
K19W | 1.57
K19E | 2.56
K19D | 1.72
K19G | 2.08
K19M | 1.69
F5V | 2.26
F5M | 3.48

Variant | protein stability index
F5T | 2.59
F5S | 2.81
F5L | 2.07
F5G | 2.92
F5I | 2.12
F5Q | 2.78
F5Y | 2.32
F5W | 2.44
F5P | 2.17
F5K | 2.38
F5H | 1.84
F5R | 2.53
F5N | 2.91
E21R | 1.77
E21A | 1.86
E21W | 1.28
E21F | 2.06
E21H | 1.79
E21Q | 2.1
E21G | 1.72
E21P | 1.8
E21V | 1.65
E21Y | 1.75
E21N | 1.79

Variant | protein stability index
E21C | 1.79
E21D | 1.77
E21L | 1.7
E21M | 2.13
E21T | 1.77
E21S | 1.54
E21I | 1.6
E21K | 1.79
K14M | 2.28
K14D | 1.68
K14N | 1.7
K14H | 2.28
K14E | 1.82
K14A | 1.53
K14S | 1.97
K14V | 1.65
K14R | 2.57
K14G | 1.25
K14F | 2.02
K14W | 3.51
K14P | 1.45
K14T | 1.56
K14Y | 1.61
K14L | 2.14

Variant | protein stability index
K14C | 2.14
K14Q | 2.78
K14I | 1.66
T7H | 2.31
T7Y | 2.08
T7L | 2
T7V | 2.25
T7C | 2.1
T7K | 1.88
T7R | 1.88
T7W | 1.8
T7P | 1.85
T7I | 1.97
T7A | 2.21
T7G | 1.8
T7N | 2.23
T7Q | 1.84
T7S | 1.73
T7F | 2.11
T7M | 2.12
T7D | 2.42
T7E | 2.31
